From PMC5057103, “Crystal structure of a DNA aptamer bound to PvLDH elucidates novel single-stranded DNA structural elements for folding and recognition” come the findings set out here.

For one data set, the target named is hLDH-B (Homo sapiens, UniProt P07195 2-334). Nature of the data set: EMSA; with or without Mg2+ and EDTA; EMSA: 20 mM HEPES pH 8.0, 5% glycerol, 50 mM NaCl, 5 mM KCl, 5 mM MgCl2 (or none), 5 mM DTT, 10 pmol DNA + 200 pmol protein in 20 ul, 1 h room temperature, gel. The settings on record: protein: commercial; chain copies: 4; hairpin with bulge; stem I T3-A34 to A6-T31, stem II G16-C30 to G20-C26, hairpin-bulge contact A22-T12, A21-T13.

The target in the next data set is hLDH-A (Homo sapiens, UniProt P00338 2-332). Described as above.
In the next data set the target is PvLDH (Plasmodium vivax, UniProt Q4PRK9 1-316). Kind of data set: X-ray crystal structure. As to conditions: protein: recombinant; tags: His-tag (pET28a, Histrap); chain copies: 2.

hLDH-B, sequence (P07195 2-334): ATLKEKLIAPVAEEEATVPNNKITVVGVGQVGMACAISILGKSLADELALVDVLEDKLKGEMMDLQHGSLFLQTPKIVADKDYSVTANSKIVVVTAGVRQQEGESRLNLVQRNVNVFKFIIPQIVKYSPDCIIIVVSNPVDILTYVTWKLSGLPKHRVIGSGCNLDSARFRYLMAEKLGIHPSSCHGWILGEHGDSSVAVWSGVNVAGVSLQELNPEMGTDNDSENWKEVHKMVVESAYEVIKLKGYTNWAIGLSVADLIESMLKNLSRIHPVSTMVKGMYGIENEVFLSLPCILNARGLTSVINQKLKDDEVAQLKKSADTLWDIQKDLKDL

B1: pL1 (structured_DNA)
DNA: GTTCGATTGGATTGTGCCGGAAGTGCTGGCTCGAAC
Regarding B1, the binding result with hLDH-B is on record as “no binding”; with hLDH-A, “no binding”; with PvLDH, “binds”.
